In article PMC10786891, “Massively parallel profiling of RNA-targeting CRISPR-Cas13d”:

T1: EsCas13d, nuclease-dead (Eubacterium siraeum, UniProt B0MS50, R295A;H300A;R849A;H854A)
T1 sequence: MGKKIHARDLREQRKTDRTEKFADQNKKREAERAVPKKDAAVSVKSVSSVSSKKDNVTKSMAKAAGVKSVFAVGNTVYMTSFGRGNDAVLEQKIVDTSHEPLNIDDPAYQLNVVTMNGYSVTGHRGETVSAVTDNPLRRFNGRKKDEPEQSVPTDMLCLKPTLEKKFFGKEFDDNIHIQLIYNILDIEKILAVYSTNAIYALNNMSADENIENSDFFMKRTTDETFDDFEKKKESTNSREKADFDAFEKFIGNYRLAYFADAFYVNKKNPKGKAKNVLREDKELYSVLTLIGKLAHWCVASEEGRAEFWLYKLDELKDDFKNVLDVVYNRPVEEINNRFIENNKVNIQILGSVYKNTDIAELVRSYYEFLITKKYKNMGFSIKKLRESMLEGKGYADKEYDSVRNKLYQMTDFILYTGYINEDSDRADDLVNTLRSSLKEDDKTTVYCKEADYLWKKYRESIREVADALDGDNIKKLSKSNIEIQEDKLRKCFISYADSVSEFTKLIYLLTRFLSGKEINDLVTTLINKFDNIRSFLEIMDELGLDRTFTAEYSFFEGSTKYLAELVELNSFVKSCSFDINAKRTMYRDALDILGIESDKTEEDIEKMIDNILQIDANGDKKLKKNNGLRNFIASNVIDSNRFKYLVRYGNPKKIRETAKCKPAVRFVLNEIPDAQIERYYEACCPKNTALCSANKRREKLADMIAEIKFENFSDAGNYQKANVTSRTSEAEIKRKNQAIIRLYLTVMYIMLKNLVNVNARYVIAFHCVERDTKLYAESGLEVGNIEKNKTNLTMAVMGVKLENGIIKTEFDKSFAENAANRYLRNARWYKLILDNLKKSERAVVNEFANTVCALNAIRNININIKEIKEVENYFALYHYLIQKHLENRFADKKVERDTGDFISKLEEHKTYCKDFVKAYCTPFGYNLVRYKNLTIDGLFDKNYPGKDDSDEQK


Target: T1, EsCas13d, nuclease-dead
Assay: crRNA (strand 1, pre-loaded); Mg2+; 40 mM Tris-HCl pH 7.5, 150 mM NaCl, 6 mM MgCl2, 1 mM DTT, 0.1% Tween-20, 0.2 mg/ml BSA; 25 C; 10 min per concentration, then washed
Conditions: tags: His6-TwinStrep-SUMO cleaved; N-terminal SNAP kept (SNAP-Surface 488); label: 3' end held by stalled T7 RNA polymerase

Binder	Kd
target 1 complement block 4-13 (mixed) RNA 1: CACCCGUGCAAAAAUGCAGGGGUCUAAAACUGAGCGGAUAACCUCUCUAUGG RNA 2: GGGAAUGGAUCCACAUCUACGAAUUCGUACCAUAGAGACCAAUAGGCGUCACCGAGAUCGGAAGAGCACACGU	55 ± 6 nM
target 1 insU 3' of 12,insG 3' of 3 (mixed) RNA 1: CACCCGUGCAAAAAUGCAGGGGUCUAAAACUGAGCGGAUAACCUCUCUAUGG RNA 2: GGGAAUGGAUCCACAUCUACGAAUUCGUACCAUAGAGAGGUUUAUCCGCUGCACCGAGAUCGGAAGAGCACACGU	6.3 ± 0.4 nM
target 1 insA 3' of 21,insC 3' of 18 (mixed) RNA 1: CACCCGUGCAAAAAUGCAGGGGUCUAAAACUGAGCGGAUAACCUCUCUAUGG RNA 2: GGGAAUGGAUCCACAUCUACGAAUUCGUACCAAUACGAGAGGUUAUCCGCUCACCGAGAUCGGAAGAGCACACGU	47 ± 7 nM
target 3 C6A,A18G (mixed) RNA 1: CACCCGUGCAAAAUUGCAGGGGUCUAAAACGACCUGAAUAUUUCAGAUCAAA RNA 2: GGGAAUGGAUCCACAUCUACGAAUUCGUUUUUGGUCUGAAAUAUUAAGGUCUGCAGAUCGGAAGAGCACACGU	55.5 ± 10.5 nM
target 3 insC 3' of 11,insC 3' of 5 (mixed) RNA 1: CACCCGUGCAAAAUUGCAGGGGUCUAAAACGACCUGAAUAUUUCAGAUCAAA RNA 2: GGGAAUGGAUCCACAUCUACGAAUUCGUUUUUGAUCUGAAACUAUUCACGGUCUGCAGAUCGGAAGAGCACACGU	88 ± 25 nM
target 3 G3U,C6G (mixed) RNA 1: CACCCGUGCAAAAUUGCAGGGGUCUAAAACGACCUGAAUAUUUCAGAUCAAA RNA 2: GGGAAUGGAUCCACAUCUACGAAUUCGUUUUUGAUCUGAAAUAUUGAGUUCUGCAGAUCGGAAGAGCACACGU	56.5 ± 11.5 nM
target 3 G3A,U7A (mixed) RNA 1: CACCCGUGCAAAAUUGCAGGGGUCUAAAACGACCUGAAUAUUUCAGAUCAAA RNA 2: GGGAAUGGAUCCACAUCUACGAAUUCGUUUUUGAUCUGAAAUAUACAGAUCUGCAGAUCGGAAGAGCACACGU	72.5 ± 14.5 nM
target 3 insA 3' of 8,insG 3' of 2 (mixed) RNA 1: CACCCGUGCAAAAUUGCAGGGGUCUAAAACGACCUGAAUAUUUCAGAUCAAA RNA 2: GGGAAUGGAUCCACAUCUACGAAUUCGUUUUUGAUCUGAAAUAUAUCAGGUGCUGCAGAUCGGAAGAGCACACGU	36.5 ± 8.5 nM
target 3 U2G,C16U (mixed) RNA 1: CACCCGUGCAAAAUUGCAGGGGUCUAAAACGACCUGAAUAUUUCAGAUCAAA RNA 2: GGGAAUGGAUCCACAUCUACGAAUUCGUUUUUGAUUUGAAAUAUUCAGGGCUGCAGAUCGGAAGAGCACACGU	21.6 ± 2.7 nM
target 3 insA 3' of 22,insA 3' of 22 (mixed) RNA 1: CACCCGUGCAAAAUUGCAGGGGUCUAAAACGACCUGAAUAUUUCAGAUCAAA RNA 2: GGGAAUGGAUCCACAUCUACGAAUUCGUUUAAUUGAUCUGAAAUAUUCAGGUCUGCAGAUCGGAAGAGCACACGU	19.4 ± 2.45 nM
target 3 insC 3' of 12,insA 3' of 2 (mixed) RNA 1: CACCCGUGCAAAAUUGCAGGGGUCUAAAACGACCUGAAUAUUUCAGAUCAAA RNA 2: GGGAAUGGAUCCACAUCUACGAAUUCGUUUUUGAUCUGAACAUAUUCAGGUACUGCAGAUCGGAAGAGCACACGU	~102 nM
target 3 U7A,U8C (mixed) RNA 1: CACCCGUGCAAAAUUGCAGGGGUCUAAAACGACCUGAAUAUUUCAGAUCAAA RNA 2: GGGAAUGGAUCCACAUCUACGAAUUCGUUUUUGAUCUGAAAUACACAGGUCUGCAGAUCGGAAGAGCACACGU	59.5 ± 7 nM
target 3 insA 3' of 8,insU 3' of 6 (mixed) RNA 1: CACCCGUGCAAAAUUGCAGGGGUCUAAAACGACCUGAAUAUUUCAGAUCAAA RNA 2: GGGAAUGGAUCCACAUCUACGAAUUCGUUUUUGAUCUGAAAUAUAUCUAGGUCUGCAGAUCGGAAGAGCACACGU	34.2 ± 3.35 nM
target 3 G4A,A12U (mixed) RNA 1: CACCCGUGCAAAAUUGCAGGGGUCUAAAACGACCUGAAUAUUUCAGAUCAAA RNA 2: GGGAAUGGAUCCACAUCUACGAAUUCGUUUUUGAUCUGAUAUAUUCAAGUCUGCAGAUCGGAAGAGCACACGU	72.5 ± 11 nM
target 3 insG 3' of 8,insA 3' of 6 (mixed) RNA 1: CACCCGUGCAAAAUUGCAGGGGUCUAAAACGACCUGAAUAUUUCAGAUCAAA RNA 2: GGGAAUGGAUCCACAUCUACGAAUUCGUUUUUGAUCUGAAAUAUGUCAAGGUCUGCAGAUCGGAAGAGCACACGU	43.5 ± 6 nM
target 3 A5G,U7A (mixed) RNA 1: CACCCGUGCAAAAUUGCAGGGGUCUAAAACGACCUGAAUAUUUCAGAUCAAA RNA 2: GGGAAUGGAUCCACAUCUACGAAUUCGUUUUUGAUCUGAAAUAUACGGGUCUGCAGAUCGGAAGAGCACACGU	37 ± 5.5 nM
target 3 U2G,A9G (mixed) RNA 1: CACCCGUGCAAAAUUGCAGGGGUCUAAAACGACCUGAAUAUUUCAGAUCAAA RNA 2: GGGAAUGGAUCCACAUCUACGAAUUCGUUUUUGAUCUGAAAUGUUCAGGGCUGCAGAUCGGAAGAGCACACGU	36 ± 5 nM
target 3 insC 3' of 2,insG 3' of 1 (mixed) RNA 1: CACCCGUGCAAAAUUGCAGGGGUCUAAAACGACCUGAAUAUUUCAGAUCAAA RNA 2: GGGAAUGGAUCCACAUCUACGAAUUCGUUUUUGAUCUGAAAUAUUCAGGUCCGUGCAGAUCGGAAGAGCACACGU	52 ± 12.5 nM
target 3 insC 3' of 4 (mixed) RNA 1: CACCCGUGCAAAAUUGCAGGGGUCUAAAACGACCUGAAUAUUUCAGAUCAAA RNA 2: GGGAAUGGAUCCACAUCUACGAAUUCGUUUUUGAUCUGAAAUAUUCAGCGUCUGCAGAUCGGAAGAGCACACGU	19 ± 2.45 nM
target 3 insA 3' of 10,insC 3' of 5 (mixed) RNA 1: CACCCGUGCAAAAUUGCAGGGGUCUAAAACGACCUGAAUAUUUCAGAUCAAA RNA 2: GGGAAUGGAUCCACAUCUACGAAUUCGUUUUUGAUCUGAAAUAAUUCACGGUCUGCAGAUCGGAAGAGCACACGU	74.5 ± 11.5 nM
target 3 insU 3' of 22,insA 3' of 7 (mixed) RNA 1: CACCCGUGCAAAAUUGCAGGGGUCUAAAACGACCUGAAUAUUUCAGAUCAAA RNA 2: GGGAAUGGAUCCACAUCUACGAAUUCGUUUUUUGAUCUGAAAUAUUACAGGUCUGCAGAUCGGAAGAGCACACGU	68.5 ± 19 nM
target 3 insC 3' of 3,insC 3' of 3 (mixed) RNA 1: CACCCGUGCAAAAUUGCAGGGGUCUAAAACGACCUGAAUAUUUCAGAUCAAA RNA 2: GGGAAUGGAUCCACAUCUACGAAUUCGUUUUUGAUCUGAAAUAUUCAGGCCUCUGCAGAUCGGAAGAGCACACGU	39 ± 4 nM
target 3 U2G,G3U (mixed) RNA 1: CACCCGUGCAAAAUUGCAGGGGUCUAAAACGACCUGAAUAUUUCAGAUCAAA RNA 2: GGGAAUGGAUCCACAUCUACGAAUUCGUUUUUGAUCUGAAAUAUUCAGUGCUGCAGAUCGGAAGAGCACACGU	9.2 ± 0.8 nM
target 3 insU 3' of 22,insC 3' of 5 (mixed) RNA 1: CACCCGUGCAAAAUUGCAGGGGUCUAAAACGACCUGAAUAUUUCAGAUCAAA RNA 2: GGGAAUGGAUCCACAUCUACGAAUUCGUUUUUUGAUCUGAAAUAUUCACGGUCUGCAGAUCGGAAGAGCACACGU	24.1 ± 2.9 nM
target 3 insA 3' of 10,insU 3' of 4 (mixed) RNA 1: CACCCGUGCAAAAUUGCAGGGGUCUAAAACGACCUGAAUAUUUCAGAUCAAA RNA 2: GGGAAUGGAUCCACAUCUACGAAUUCGUUUUUGAUCUGAAAUAAUUCAGUGUCUGCAGAUCGGAAGAGCACACGU	59 ± 13 nM
target 3 insG 3' of 7,insA 3' of 4 (mixed) RNA 1: CACCCGUGCAAAAUUGCAGGGGUCUAAAACGACCUGAAUAUUUCAGAUCAAA RNA 2: GGGAAUGGAUCCACAUCUACGAAUUCGUUUUUGAUCUGAAAUAUUGCAGAGUCUGCAGAUCGGAAGAGCACACGU	88 ± 17.5 nM
target 3 U2G,U22G (mixed) RNA 1: CACCCGUGCAAAAUUGCAGGGGUCUAAAACGACCUGAAUAUUUCAGAUCAAA RNA 2: GGGAAUGGAUCCACAUCUACGAAUUCGUUGUUGAUCUGAAAUAUUCAGGGCUGCAGAUCGGAAGAGCACACGU	61.5 ± 14.5 nM
target 3 G3C,U8G (mixed) RNA 1: CACCCGUGCAAAAUUGCAGGGGUCUAAAACGACCUGAAUAUUUCAGAUCAAA RNA 2: GGGAAUGGAUCCACAUCUACGAAUUCGUUUUUGAUCUGAAAUAGUCAGCUCUGCAGAUCGGAAGAGCACACGU	88 ± 16.5 nM
